Measured values: patent WO2001072771A2 (dated 2003)
Positions of bridges follow the written chain, without caps; N, C: chain ends. No end group written: not given here.

B1: IM449 (Δ-12-3 #43) (peptide)
peptide: HPTSKEIYAKLLGGGS
notes: on phage; motif 7
B2: IM459 (Δ-12-3* #60) (peptide)
peptide: HPSLSDMRWILLGGGS
notes: on phage; motif 7
B3: C1 peptide (peptide)
peptide: DYKDCWARPCGDAANFYDWFVQQASKK
modifications: disulfide 5-10 (inferred)
notes: synthetic; biotinylated where printed as b-C1 or D112; also called D112; b-C1
B4: IM450 (Δ-12-3 #28) (peptide)
peptide: HPSTNQMLMKLFGGGS
notes: on phage; motif 7
B5: IM451 (Δ-12-3 #34) (peptide)
peptide: HPPLSELKLFLIGGGS
notes: on phage; motif 7
B6: IM445 (Δ-12-3 #6) (peptide)
peptide: APTFYAWFNQQTGGGS
notes: on phage; also called ~J229
B7: IM452 (Δ-12-3 #23) (peptide)
peptide: HPPLEHLKAFLLGGGS
notes: on phage; motif 7; also called ~J228

Columns and labels:
[1] = biological target: T1, sIGF-1R-Fc (UniProt P08069 31-935); experiment: phage ELISA
T1 construct: also called slGF-1R-Fc; not shown: Fc part not described

[2] = biological target: human IGF-1 receptor (HIGF-1R) (human, UniProt P08069 31-1367); experiment: displacement of 125I-IGF-1 from HIGF-1R
[3] = biological target: T2, soluble human insulin receptor (IR-Fc) (human, UniProt P06213 28-956); experiment: assay not given
T2 construct: extracellular domain; retains the beta-alpha-alpha-beta structure; also called sIR; sIR-Fc

| Binder | binding result [1] | other results |
| --- | --- | --- |
| B1 | no binding | – |
| B2 | no binding | – |
| B3 | – | binding result [2]: binds |
| B4 | no binding | – |
| B5 | no binding | – |
| B6 | – | IC50 [3]: ~2400 nM |
| B7 | no binding | – |
